Measured values from patent US8088617B2, “Antibodies that bind the glutamate ligand binding region of Notch1” (OncoMed Pharmaceuticals, Inc., priority 2007, dated 2012).
“Also recorded” adds a separate entry of the source.

How the values were obtained:
[1] = system: Notch signaling (ICD formation) in Hela cells stably expressing Notch1; assay: Western blot of Notch ICD formation in response to DLL4; format: cell-based; conditions: 10 ug/ml soluble DLL4-Fc; western blot of cell lysates
Description: FIG. 8: Monoclonal Antibodies to the Notch Ligand Binding Domain Inhibit Notch Signaling. A) A schematic of the Notch signaling mechanism. Upon ligand binding, gamma secretase activity cleaves the Notch receptor and liberates the intracellular domain (ICD) to activate downstream Notch signaling. B) Monoclonal antibodies against the Notch ligand binding domain inhibit Notch signaling in response to Notch ligand DLL4.
In certain embodiments, the ability of antibodies against a Notch ligand binding region to block Notch signaling was measured by inhibition of Notch cleavage in response to ligand stimulation. Hela cells stably expressing Notch1 were cultured in DMEM supplemented with antibiotics and 10% FCS. Cells were then incubated in the presence of 10 ug/ml soluble DLL4-Fc protein in the presence or absence of monoclonal antibodies against a Notch ligand binding domain, control antibodies, antibodies against Notch1 binding outside the ligand binding region (13M57), and gamma secretase inhibitor DBZ. Cells were harvested and cell lysates analyzed by western blot using an antibody that recognizes the cleaved intracellular domain (ICD) of Notch generated in response to ligand induced signaling (FIG. 8A).

[2] = molecular target: T1, wild type full length Notch1 (Homo sapiens, UniProt P46531); assay: FACS binding to HEK293 cells co-transfected with GFP and wild type Notch1; conditions: HEK293 cells co-transfected with GFP
T1 construct: co-transfected with GFP and either wild type full length Notch1; expressed in transfected cells; host or cells: HEK293
T1 sequence (P46531 19-2555): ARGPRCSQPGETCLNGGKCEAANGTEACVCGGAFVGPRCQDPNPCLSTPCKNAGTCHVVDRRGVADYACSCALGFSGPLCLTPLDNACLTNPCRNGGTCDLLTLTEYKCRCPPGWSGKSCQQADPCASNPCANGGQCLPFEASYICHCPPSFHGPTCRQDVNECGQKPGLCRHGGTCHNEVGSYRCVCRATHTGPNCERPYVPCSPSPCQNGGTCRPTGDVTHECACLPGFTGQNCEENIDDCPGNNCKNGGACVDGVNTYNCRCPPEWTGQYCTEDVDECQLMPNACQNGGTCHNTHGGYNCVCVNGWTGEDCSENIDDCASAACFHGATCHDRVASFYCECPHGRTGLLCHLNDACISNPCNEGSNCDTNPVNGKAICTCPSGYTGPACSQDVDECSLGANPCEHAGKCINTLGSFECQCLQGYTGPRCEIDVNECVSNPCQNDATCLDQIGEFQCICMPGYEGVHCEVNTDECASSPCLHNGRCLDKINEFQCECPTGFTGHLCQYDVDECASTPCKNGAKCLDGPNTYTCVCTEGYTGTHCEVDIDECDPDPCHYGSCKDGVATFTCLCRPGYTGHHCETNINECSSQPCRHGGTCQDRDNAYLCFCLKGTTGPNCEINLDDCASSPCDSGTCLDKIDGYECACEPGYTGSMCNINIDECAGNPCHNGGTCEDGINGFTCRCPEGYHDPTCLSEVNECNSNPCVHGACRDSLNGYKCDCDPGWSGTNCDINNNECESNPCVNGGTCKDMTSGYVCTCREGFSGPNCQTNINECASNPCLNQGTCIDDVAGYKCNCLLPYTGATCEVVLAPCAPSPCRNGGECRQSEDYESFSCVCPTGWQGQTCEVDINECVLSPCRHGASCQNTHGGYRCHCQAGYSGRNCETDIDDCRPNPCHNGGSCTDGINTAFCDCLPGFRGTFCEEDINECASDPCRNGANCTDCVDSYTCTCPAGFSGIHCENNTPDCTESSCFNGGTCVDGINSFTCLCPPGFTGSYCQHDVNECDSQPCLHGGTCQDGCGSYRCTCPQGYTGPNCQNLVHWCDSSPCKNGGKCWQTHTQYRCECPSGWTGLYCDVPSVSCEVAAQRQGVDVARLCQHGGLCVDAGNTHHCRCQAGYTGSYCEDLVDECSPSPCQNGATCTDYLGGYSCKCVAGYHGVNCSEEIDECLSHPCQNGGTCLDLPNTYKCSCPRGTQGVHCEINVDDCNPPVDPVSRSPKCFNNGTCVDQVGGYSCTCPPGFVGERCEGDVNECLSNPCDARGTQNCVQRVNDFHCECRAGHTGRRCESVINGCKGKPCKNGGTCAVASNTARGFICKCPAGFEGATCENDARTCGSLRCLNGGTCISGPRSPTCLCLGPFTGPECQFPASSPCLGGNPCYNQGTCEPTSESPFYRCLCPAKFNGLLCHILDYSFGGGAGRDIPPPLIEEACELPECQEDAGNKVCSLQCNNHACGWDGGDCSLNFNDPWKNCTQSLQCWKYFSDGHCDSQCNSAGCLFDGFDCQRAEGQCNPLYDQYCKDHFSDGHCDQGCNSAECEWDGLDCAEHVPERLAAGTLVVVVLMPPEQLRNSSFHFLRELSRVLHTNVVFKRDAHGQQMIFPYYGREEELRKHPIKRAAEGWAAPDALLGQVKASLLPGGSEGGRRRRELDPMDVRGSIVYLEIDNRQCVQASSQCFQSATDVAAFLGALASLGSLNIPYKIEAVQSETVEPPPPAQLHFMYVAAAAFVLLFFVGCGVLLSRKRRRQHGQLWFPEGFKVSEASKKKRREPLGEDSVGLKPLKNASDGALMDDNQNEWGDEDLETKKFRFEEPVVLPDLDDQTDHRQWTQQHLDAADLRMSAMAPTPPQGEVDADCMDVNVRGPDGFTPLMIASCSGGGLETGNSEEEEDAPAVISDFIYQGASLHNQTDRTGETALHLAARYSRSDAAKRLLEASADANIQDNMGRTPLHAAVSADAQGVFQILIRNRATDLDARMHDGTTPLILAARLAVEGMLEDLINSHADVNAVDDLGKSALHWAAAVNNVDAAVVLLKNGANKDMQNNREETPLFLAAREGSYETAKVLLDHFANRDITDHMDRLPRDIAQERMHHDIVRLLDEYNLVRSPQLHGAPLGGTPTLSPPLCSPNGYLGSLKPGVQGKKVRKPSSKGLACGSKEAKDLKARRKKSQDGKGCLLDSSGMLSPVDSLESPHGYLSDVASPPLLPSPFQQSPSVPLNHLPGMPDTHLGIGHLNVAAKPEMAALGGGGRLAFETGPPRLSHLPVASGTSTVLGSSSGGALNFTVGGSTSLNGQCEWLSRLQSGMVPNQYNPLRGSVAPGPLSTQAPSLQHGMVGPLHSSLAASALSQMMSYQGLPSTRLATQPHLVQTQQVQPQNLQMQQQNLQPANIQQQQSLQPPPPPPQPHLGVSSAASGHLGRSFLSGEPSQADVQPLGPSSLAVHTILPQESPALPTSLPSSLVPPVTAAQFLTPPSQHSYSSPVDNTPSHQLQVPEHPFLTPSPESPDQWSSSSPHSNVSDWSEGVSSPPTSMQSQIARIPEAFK
Description: (§1) FIG. 4: Identification of a fAb that Binds a Critical Ligand Binding Domain of Notch1. FACS analysis of HEK 293 cells co-transfected with GFP and either wild type Notch or Notch1 E424Q using a human fAb identified by phage display as binding the ligand binding domain of Notch1. GFP expression marked cells expressing recombinant Notch1 protein (x-axis) and binding to Notch1 is indicated along the y-axis.
(§2) FIG. 5: Identification of an Antibody that Binds the Ligand Binding Region of Multiple Notch Receptors. FACS analysis of HEK 293 cells co-transfected with GFP and wild type Notch3, Notch1 or Notch1 E424Q using a human fAb identified by phage display as binding the ligand binding domain of Notch3. GFP expression marked transfected cells expressing recombinant Notch protein (x-axis). Binding of fAb is indicated on the y-axis.
(§3) To confirm that the lead Notch1 fAb was specific for the ligand binding region of Notch1, HEK293 cells were co-transfected with GFP and either wild type full length Notch1 or Notch1 containing the amino acid substitution E424Q.

Notch1 E424Q = molecular target: T2, Notch1 E424Q (Homo sapiens, UniProt P46531, E424Q); assay: FACS binding to HEK293 cells co-transfected with GFP and Notch1 E424Q; conditions: HEK293 cells co-transfected with GFP
T2 construct: Full-length wild type Notch1 or Notch1 E424Q was co-transfected with GFP into HEK 293 cells; expressed in transfected cells; host or cells: HEK293
T2 sequence (P46531 19-2555 E424Q): as the sequence (P46531 19-2555) above, with E406Q counted along it
Description: as §1, §2, §3

human Notch3 = human Notch3 (Homo sapiens, UniProt Q9UM47); assay: fAb binding to human Notch3 (phage display selection)
Sequence of human Notch3 (Q9UM47 40-2321): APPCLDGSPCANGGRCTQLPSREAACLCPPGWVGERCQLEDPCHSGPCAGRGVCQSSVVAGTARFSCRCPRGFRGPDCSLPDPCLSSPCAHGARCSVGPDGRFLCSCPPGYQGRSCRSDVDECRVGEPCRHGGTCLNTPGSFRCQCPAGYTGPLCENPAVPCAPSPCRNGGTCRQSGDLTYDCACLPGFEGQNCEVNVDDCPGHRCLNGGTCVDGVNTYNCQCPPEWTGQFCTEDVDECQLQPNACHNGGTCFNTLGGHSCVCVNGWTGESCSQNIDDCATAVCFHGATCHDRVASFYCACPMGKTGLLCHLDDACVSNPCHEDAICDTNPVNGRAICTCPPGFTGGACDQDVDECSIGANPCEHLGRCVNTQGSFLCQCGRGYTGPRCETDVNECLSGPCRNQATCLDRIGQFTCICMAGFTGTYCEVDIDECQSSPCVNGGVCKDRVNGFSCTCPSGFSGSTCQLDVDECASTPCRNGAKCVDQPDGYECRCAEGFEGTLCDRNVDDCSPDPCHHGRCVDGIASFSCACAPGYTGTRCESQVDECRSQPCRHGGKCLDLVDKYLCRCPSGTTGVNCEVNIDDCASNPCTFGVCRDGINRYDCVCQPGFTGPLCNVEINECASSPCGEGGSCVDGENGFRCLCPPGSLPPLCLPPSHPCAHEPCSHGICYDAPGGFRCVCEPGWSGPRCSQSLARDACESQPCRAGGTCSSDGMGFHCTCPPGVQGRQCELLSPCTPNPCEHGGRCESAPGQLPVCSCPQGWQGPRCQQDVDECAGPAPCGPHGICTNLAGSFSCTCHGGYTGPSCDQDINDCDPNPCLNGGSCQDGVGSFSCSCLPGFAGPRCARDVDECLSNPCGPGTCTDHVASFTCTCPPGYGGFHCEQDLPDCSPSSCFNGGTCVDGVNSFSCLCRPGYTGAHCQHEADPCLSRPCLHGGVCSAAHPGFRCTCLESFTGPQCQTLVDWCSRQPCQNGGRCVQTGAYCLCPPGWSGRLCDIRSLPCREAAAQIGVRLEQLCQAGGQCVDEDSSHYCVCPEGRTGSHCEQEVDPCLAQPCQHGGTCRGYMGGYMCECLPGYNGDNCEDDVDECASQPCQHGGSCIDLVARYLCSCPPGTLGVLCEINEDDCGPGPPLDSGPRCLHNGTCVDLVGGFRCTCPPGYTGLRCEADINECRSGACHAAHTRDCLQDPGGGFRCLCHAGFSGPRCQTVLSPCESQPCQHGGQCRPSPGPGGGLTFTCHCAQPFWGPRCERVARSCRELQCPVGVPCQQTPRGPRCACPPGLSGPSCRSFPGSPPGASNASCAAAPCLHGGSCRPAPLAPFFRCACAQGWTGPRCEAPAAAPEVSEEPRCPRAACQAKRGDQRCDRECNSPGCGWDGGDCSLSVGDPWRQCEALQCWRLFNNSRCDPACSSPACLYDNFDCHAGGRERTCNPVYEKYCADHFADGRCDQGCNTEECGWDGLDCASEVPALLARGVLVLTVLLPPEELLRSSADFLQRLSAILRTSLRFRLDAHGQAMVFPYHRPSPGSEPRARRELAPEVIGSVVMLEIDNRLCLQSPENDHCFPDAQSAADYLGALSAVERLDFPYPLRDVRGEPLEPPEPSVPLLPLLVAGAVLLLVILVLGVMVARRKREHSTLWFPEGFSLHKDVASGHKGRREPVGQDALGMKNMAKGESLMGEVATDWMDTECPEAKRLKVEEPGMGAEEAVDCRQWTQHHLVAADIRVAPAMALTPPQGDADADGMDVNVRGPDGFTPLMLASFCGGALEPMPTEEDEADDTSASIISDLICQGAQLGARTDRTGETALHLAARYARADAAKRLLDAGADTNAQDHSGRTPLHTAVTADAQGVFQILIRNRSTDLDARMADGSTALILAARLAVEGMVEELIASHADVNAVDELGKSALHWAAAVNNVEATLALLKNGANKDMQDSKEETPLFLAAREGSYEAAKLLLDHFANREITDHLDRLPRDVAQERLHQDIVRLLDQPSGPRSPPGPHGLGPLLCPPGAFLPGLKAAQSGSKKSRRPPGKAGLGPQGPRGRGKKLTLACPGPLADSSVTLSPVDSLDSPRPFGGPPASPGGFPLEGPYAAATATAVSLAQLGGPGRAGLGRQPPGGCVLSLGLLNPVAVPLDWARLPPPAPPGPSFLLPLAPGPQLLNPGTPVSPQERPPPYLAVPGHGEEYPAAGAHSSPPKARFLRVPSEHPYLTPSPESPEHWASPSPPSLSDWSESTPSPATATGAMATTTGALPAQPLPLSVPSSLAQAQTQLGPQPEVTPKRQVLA
Procedure: (§4) In certain embodiments, phage display identified a specific fAb that binds to the ligand binding domain within Notch1. In certain embodiments, phage display identified a specific fAb that binds to the ligand binding domain within Notch3. In certain embodiments, a fAb was discovered that bound to the ligand binding domain of both Notch3 and Notch1. In certain embodiments, 2×10^13 Fab displaying phage particles from a human fAb phage library were incubated with cells expressing full length recombinant protein or passively immobilized recombinant protein fragments, non-specific phage were washed off, and then specific phage were eluted with either low pH (cells) or DTT (recombinant protein). The eluted output was used to infect TG1 F+ bacteria, rescued with helper phage, and then Fab display induced with IPTG (0.25 mM). The output of this rescued round one served as the starting point for further selections in rounds two, three, four, and five as indicated in Table 1.
(§5) For Notch3, the phage display library was panned for binding to the analogous epitope within Notch3 (comprising amino acid 403 of Notch3) using similar approach for as Notch1. […] The 122R5 heavy chain comprises the amino acids of SEQ ID NO: 9, including CDR1 (SEQ ID NO: 10); CDR2 (SEQ ID NO: 11) and CDR3 (SEQ ID NO: 12). […]

murine Notch3 = murine Notch3 (Mus musculus, UniProt Q61982); assay: fAb binding to murine Notch3 (phage display selection)
Procedure: as §4, §5

Notch3 (E403Q) = Notch3 (E403Q) (Homo sapiens, UniProt Q9UM47, E403Q); assay: fAb binding to Notch3 with E403Q substitution
Sequence of Notch3 (E403Q) (Q9UM47 40-2321 E403Q): as the sequence (Q9UM47 40-2321) above, with E364Q counted along it
Description: For Notch3, the phage display library was panned for binding to the analogous epitope within Notch3 (comprising amino acid 403 of Notch3) using similar approach for as Notch1. […] The 122R5 heavy chain comprises the amino acids of SEQ ID NO: 9, including CDR1 (SEQ ID NO: 10); CDR2 (SEQ ID NO: 11) and CDR3 (SEQ ID NO: 12). The 122R5 light chain comprises the amino acids of SEQ ID NO: 13, including CDR1 (SEQ ID NO: 14); CDR2 (SEQ ID NO: 15) and CDR3 (SEQ ID NO: 16).

human Notch1 = molecular target: T3, human Notch1 (Homo sapiens, UniProt P46531); assay: FACS: inhibition of DLL4 binding to Notch1 on stably transfected HEK293 cells; conditions: soluble DLL4-fc, increasing concentrations of antibody
T3 construct: expressed in transfected cells
Procedure: FIG. 6: Affinity Matured mAbs that Bind the Ligand Binding Domain of Notch1 Inhibit Binding of DLL4 to Notch1. […] Three affinity matured variants were tested for their ability to block binding between DLL4 and Notch1 (y-axis) in the presence of increasing concentrations of antibody (x-axis).
The ability of antibodies specific for the critical ligand binding region to inhibit binding of Notch ligands to Notch was evaluated. In certain embodiments, the ability of a panel of affinity matured monoclonal antibodies specific for the Notch1 ligand binding region to inhibit binding of DLL4 to Notch1 was determined by FACS analysis (FIG. 6). HEK293 cells stably transfected with human Notch1 were incubated with soluble DLL4-fc fusion protein in the presence of increasing concentrations of 90R21, 90R22, and 90R29 antibodies. […] HEK293 cells co-transfected with GFP and full length Notch3 were incubated with a soluble human Jag1-fc fusion protein in the absence (No Ab) or presence (122R03E1) of the fAb.

PE13 breast tumor cells = assay: PE13 breast tumor xenograft growth; format: in vivo, NOD/SCID mice
Procedure: (§6) FIG. 9: Monoclonal Antibodies to the Notch Ligand Binding Domain Inhibit Tumor Growth In Vivo. NOD/SCID mice were injected with dissociated PE13 (A) or T3 (B) breast tumor cells and treated with either control antibodies (black squares); anti-Notch ligand binding region antibodies 90R21 (open circles); control antibodies in combination with Paclitaxel (black triangles); or 90R21 antibodies in combination with Paclitaxel (open triangles).
(§7) In certain embodiments, tumor cells from a patient sample (solid tumor biopsy or pleural effusion) that have been passaged as a xenograft in mice were prepared for repassaging into experimental animals. Tumor tissue was removed under sterile conditions, cut up into small pieces, minced completely using sterile blades, and single cell suspensions obtained by enzymatic digestion and mechanical disruption. Specifically, pleural effusion cells or the resulting tumor pieces were mixed with ultra-pure collagenase III in culture medium (200-250 units of collagenase per mL) and incubated at 37° C. for 3-4 hours with pipetting up and down through a 10-mL pipette every 15-20 minutes. Digested cells were filtered through a […] nylon mesh, washed with RPMI/20% FBS, and washed twice with HBSS. […]
(§8) In certain embodiments, anti-Notch ligand binding region antibodies were analyzed for their ability to reduce the growth of breast tumors in vivo. […]

T3 breast tumor cells = assay: T3 breast tumor xenograft growth; format: in vivo, NOD/SCID mice; conditions: estrogen pellet
Procedure: as §6, §7, §8

[3] = antibody 10 mg/kg twice a week in combination with Paclitaxel 10 mg/kg once a week
[4] = antibody alone 10 mg/kg twice a week, vs control antibody, after 55 days

| binding to cells expressing wild type Notch1 [2] | binding to cells expressing Notch1 E424Q (Notch1 E424Q) | binding to human Notch3 (human Notch3) | binding to murine Notch3 (murine Notch3) | binding to Notch3 (E403Q) (Notch3 (E403Q)) | Molecule | formation of Notch ICD in response to DLL4 [1] | blocking of binding between DLL4 and Notch1 (human Notch1) | tumor growth, PE13, combination (PE13 breast tumor cells; [3]) | tumor growth, PE13 (PE13 breast tumor cells; [4]) | tumor growth, T3, combination (T3 breast tumor cells; [3]) | tumor growth, T3 (T3 breast tumor cells; [4]) |
| --- | --- | --- | --- | --- | --- | --- | --- | --- | --- | --- | --- |
| – | – | – | – | – | C[C@H](NC(=O)Cc1cc(F)cc(F)c1)C(=O)N[C@@H]1C(=O)N(C)c2ccccc2-c2ccccc21 [DBZ, reference compound] | prevented formation of Notch ICD; also recorded: blocked this signaling event | – | – | – | – | – |
| ability to bind to Notch1 | not to Notch1(E424Q) | bound | bound | not Notch3 (E403Q) | 122R5: lead anti-Notch3 fAb; heavy chain SEQ ID NO: 9, light chain SEQ ID NO: 13; ATCC PTA-8908 (antibody, Synthetic 122R5 Heavy chain; Synthetic 122R5 Light chain) heavy: MKHLWFFLLLVAAPRWVLSQVQLVESGGGLVQPGGSLRLSCAASGFTFSDNAIHWVRQAPGKGLEWVSAISSYGSGTYYADSVKGRFTISRDNSKNTLYLQMNSLRAEDTAVYYCARPGFQFSFTFMDIWGQGTLVTVSSASTKGPSVFPLAPCSRSTSESTAALGCLVKDYFPEPVTVSWNSGALTSGVHTFPAVLQSSGLYSLSSVVTVPSSNFGTQTYTCNVDHKPSNTKVDKTVERKCCVECPPCPAPPVAGPSVFLFPPKPKDTLMISRTPEVTCVVVDVSHEDPEVQFNWYVDGVEVHNAKTKPREEQFNSTFRVVSVLTVVHQDWLNGKEYKCKVSNKGLPAPIEKTISKTKGQPREPQVYTLPPSREEMTKNQVSLTCLVKGFYPSDIAVEWESNGQPENNYKTTPPMLDSDGSFFLYSKLTVDKSRWQQGNVFSCSVMHEALHNHYTQKSLSLSPGK light: MAWALLLLTLLTQGTGSWADIELTQPPSVSVAPGQTARISCSGDALGSKYASWYQQKPGQAPVLVIYDDKNRPSGIPERFSGSNSGNTATLTISGTQAEDEADYYCQSWDGKSKVVFGGGTKLTVLGQPKAAPSVTLFPPSSEELQANKATLVCLISDFYPGAVTVAWKADSSPVKAGVETTTPSKQSNNKYAASSYLSLTPEQWKSHRSYSCQVTHEGSTVEKTVAPTECS | – | – | – | – | – | – |
| – | – | – | – | – | 90R21: affinity matured anti-Notch1 ligand binding domain antibody; heavy chain SEQ ID NO: 1, light chain SEQ ID NO: 5; ATCC PTA-8909 (antibody, Synthetic 90R21 Heavy chain; Synthetic 90R21 Light chain) heavy: MKHLWFFLLLVAAPRWVLSEVQLLESGGGLVQPGGSLRLSCAASGFTFSNYGMSWVRQAPGKGLEWVSSISGYGSNTYYADSVKGRFTISRDNSKNTLYLQMNSLRAEDTAVYYCARISQQAVWGQGTLVTVSSASTKGPSVFPLAPCSRSTSESTAALGCLVKDYFPEPVTVSWNSGALTSGVHTFPAVLQSSGLYSLSSVVTVPSSNFGTQTYTCNVDHKPSNTKVDKTVERKCCVECPPCPAPPVAGPSVFLFPPKPKDTLMISRTPEVTCVVVDVSHEDPEVQFNWYVDGVEVHNAKTKPREEQFNSTFRVVSVLTVVHQDWLNGKEYKCKVSNKGLPAPIEKTISKTKGQPREPQVYTLPPSREEMTKNQVSLTCLVKGFYPSDIAVEWESNGQPENNYKTTPPMLDSDGSFFLYSKLTVDKSRWQQGNVFSCSVMHEALHNHYTQKSLSLSPGK light: MAWALLLLTLLTQGTGSWAQSALTQPASVSGSPGQSITISCTGTSSDIGGYQYVSWYQQHPGKAPKLMIYYVSNRPSGVSNRFSGSKSGNTASLTISGLQAEDEADYYCQSADSSSWVFGGGTKLTVLGQPKAAPSVTLFPPSSEELQANKATLVCLISDFYPGAVTVAWKADSSPVKAGVETTTPSKQSNNKYAASSYLSLTPEQWKSHRSYSCQVTHEGSTVEKTVAPTECS | prevented formation of Notch ICD; also recorded: inhibited ICD formation | blocked the binding; also recorded: disrupted ligand binding | virtually eliminated tumor growth | significantly reduced tumor growth; also recorded: reduced tumor growth significantly | virtually eliminated T3 tumor growth | significantly reduced tumor growth; also recorded: reduced tumor growth significantly |
